Results taken from the nanobody polyreactivity screen of Harvey et al. (2022).

experiment: yeast display, Sf9 membrane polyspecificity reagent, FACS + sequencing; frameworks hold sequencing errors
Outline: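 Galactose induction of a Saccharomyces cerevisiae BJ5465 synthetic nanobody display library ran 36–48 hours. The cells were then stained for 1 hour at 4 °C with 10% biotinylated, detergent-solubilized Sf9 membrane reagent, pulled down on streptavidin microbeads and FACS-sorted into low and high (top ~1%) gates on expression and reagent-binding fluorescence. Labels for polyreactivity follow the gate of origin.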

Sequence	polyreactivity (PSR sort gate)
QVQLVESGGGLVQAGGSLRLSCAASGRTFYNYAMGGYRQAPGKERELVAAISWSDGTTYYADSVKGRFTISRDNAKNTVYLQMNSLKPEDTAVYYCAAEFESSFALGFYYWGQGTQVTVSS	high polyreactivity
QVQLVESGGGLVQAGGSLRLSCAASGRTFYPNVMGWYRQAPGKERELVAAITSGGSTYYADSVKGRFTISRDNAKNTVALEMNSQKPEDTAVYYCAVAYAGGGSRKYDYWGQGTQVTVSS	low polyreactivity
QVQLVESGGGLVQAGGSLRLSCAASGRTFYPYAMGWSRQAPGKERELVAAISWNGGRTYYADSVKGRFTISRDNAKNTVYLQMNSLKPEDTAVYYCAADTAYYDFDYWGQGTQVTVSS	low polyreactivity
QVQLVESGGGLVQAGGSLRLSCAASGRTFYPYAMGWYRQAPGKERELVATITWSGTTTYYADSVKGRFTISRDNAKNTVYLQMNSLKPEDTAVYYCAADVWEVVTPYGTIDDDYWGQGTQVTVSS	high polyreactivity
QVQLVESGGGLVQAGGSLRLSCAASGRTFYPYAMGWYRQAPGTERELVAAISRSGGGTYYADSVKGRFTISRDNAKNTVYLQMNSLKPEDTAVYYCAAARYLSIYNYWGQGTQVTVSS	low polyreactivity
QVQLVESGGGLVQAGGSLRLSCAASGRTFYPYVMGWYRQAPGKERELVARIRWSGSSTYYADSVKGRFTISRDNAKNTVYLQMNSLKPEDTAVYYCNARPSWYVFGSSVHSGMGYWGQGTQVTVSS	high polyreactivity
QVQLVESGGGLVQAGGSLRLSCAASGRTFYPYVMGWYRQAPGKERELVATISWSGGSTYYADSVKGRFTISRDNAKNTVYLQMNSLKPEDTAVYYCAALWPYGYWGQGTQVTVSS	low polyreactivity
QVQLVESGGGLVQAGGSLRLSCAASGRTFYPYVMRWYRQAPGKERELVAAITNRGGSTYYADSVKGRFTISRDNAKKTVYLQMNSLKPEDTAVYYCAKRQVGVGHYDHWGQGTQVTVSS	low polyreactivity
QVQLVESGGGLVQAGGSLRLSCAASGRTFYQNAMGWYRQAPGKERELVAAISYRGASTYYADSVKGRFTISRDNAKNTVYLQMHSLKPEDTAVYYCAVAARTRARVLYGYDYWGQGTQVTVSS	low polyreactivity
QVQLVESGGGLVQAGGSLRLSCAASGRTFYQYAMGWYRPAPGKERELVAAITTSGGSTYYADSVKGRFTNSRDNAKNTVYLQMNSLKPEDTAVYYCAAPYTGYRERGSYKSDYWGQGTQVTESS	low polyreactivity
QVQLVESGGGLVQAGGSLRLSCAASGRTFYQYAMGWYRQAPGKERELVAAISRSGTSTYYADSVKGRFTISRDNAKNTVYLQMNSLKPEDTAVYYCYVLRYDYWGQGTQVTVSS	high polyreactivity
QVQLVESGGGLVQAGGSLRLSCAASGRTFYQYAMGWYRQAPGKERELVAAITRRGGSTYYADSVKGRFTISRDNAKNTVYLQMNSLKPDDTAVYYCNAQYKKGFDYWGQGPQVTVSS	high polyreactivity
QVQLVESGGGLVQAGGSLRLSCAASGRTFYRKAMGWYRQAPGKERELVAAITYGGGSTYYADSVKGRFTISRDNAKNTVYLQMNSLKPEDTAVYYCNALRNVRTGRTQVLSYYWGQGTQVTVSS	high polyreactivity
QVQLVESGGGLVQAGGSLRLSCAASGRTFYRNAMGWYRQAPGKERELFATINSGGSTHYADSVKGRFTISRDNAKNTVYLQMTSLKPEDNAVYYCAARSQSYRGSLSYYWGQGTQVTVSS	high polyreactivity
QVQLVESGGGLVQAGGSLRLSCAASGRTFYRNAMGWYRQAPGKERELVAAISQRGGRTYYADSVKGRFTISRDNAKNTVYLQMNSLKPEDTAVYYCAASPIYPVYRRHGYWGQGTQVTVSS	high polyreactivity
QVQLVESGGGLVQAGGSLRLSCAASGRTFYRNAMGWYRQAPGKERELVAAISRGDSTYYADSVKGRFTNSRDNAKNTVYLQMNILIPEDTAVYYCAKRARRIGDVNMGSWGQGTQVTVSS	low polyreactivity
QVQLVESGGGLVQAGGSLRLSCAASGRTFYRNPMGWYRQAPAKERELVAANSWSGGRTFYADSVKGRFTISRDNAKNTVYLHMNSMKPEDTAVYYCAKSYTTPGYYRYDYWGQGTQVTVSS	high polyreactivity
QVQLVESGGGLVQAGGSLRLSCAASGRTFYRSAMGWYRQAPGKERELVAAISSSGGRTYYADSVKGRFTISRDYAKNTVYLQMNSLKPEDTAVYYCNAAPSWSTSFDSWGQGTQVTVSS	high polyreactivity
QVQLVESGGGLVQAGGSLRLSCAASGRTFYRYAMGWYRQAPGKERELVAAISSGGSTNYADSVKGRFTISRDNAKNTVYLQMNSLKPEDTAVYYCAAETRLHRQDYDYWGQGTQVTVSS	low polyreactivity
QVQLVESGGGLVQAGGSLRLSCAASGRTFYRYAMGWYRQAPGKERELVAAISTSGSTTYADSVKGRFTISRDNAKNTVYLQMISLKPEDTAVYYCNAVYYYRPDWRQSNLSQYGYWGQGTQVTVSS	high polyreactivity
QVQLVESGGGLVQAGGSLRLSCAASGRTFYRYAMGWYRQAPGKERELVATISSSGRTYYADSVKGRFTISRDNAKNTVYLQMNSLKPEDTAVYYCRFTIKHGSWGQGTQVTVSS	high polyreactivity
QVQLVESGGGLVQAGGSLRLSCAASGRTFYRYAMGWYRQAPWKERELVAAITKRGSGTYYADSVKGRFTISRDNAKNTVYLQMNSLKPEDTAVYYCATDGYIRPSRPAPTQPTFNYWGQGSQVTVSS	high polyreactivity
QVQLVESGGGLVQAGGSLRLSCAASGRTFYRYVMGWYRQAPGKERELVAAITPGGSTYADSVKGRFTISRDNAKNTVYLQMNSLKPEDTAVYYCNAKVGAYLNYGYWGQGTQVTVSS	low polyreactivity
QVQLVESGGGLVQAGGSLRLSCAASGRTFYSNVMGWYIQAPGQERELVASISRGGNTYYADSVKGRFTISRDNAKIPFYLQMNSLKPEDTAVYYCAARQYHSRDFDYWGQGTQVTVSS	low polyreactivity
QVQLVESGGGLVQAGGSLRLSCAASGRTFYSYAMGWYRPAPGKERELVAAINTSGGRTHYADSVKGRFTISRDNGKNTVYLQMNSLKPEDTAVYYCAAEVFRTRTWEYYYWGQGTQVTVSS	high polyreactivity
QVQLVESGGGLVQAGGSLRLSCAASGRTFYSYAMGWYRQAPGKERELVAAINTSGGRTHYADSVKGRFTISRDNAKNTVYLQMNSLKPEDTAVYYCAAEVFRTRTWEYYYWGQGTQVTVSS	high polyreactivity
QVQLVESGGGLVQAGGSLRLSCAASGRTFYSYAMGWYRQAPGKERELVAGITWSGTSTYYADSVKGRFTISRDNAKNTVYLQMNSLKPEDTAVYYCAADSIQYTARPYDYWGQGTQVTVSS	low polyreactivity
QVQLVESGGGLVQAGGSLRLSCAASGRTFYSYSMGWYRQEPGQERELVALITWSGGTYYADSVKGRFTISRDNANNTVYLLMNSLKPEDTAVYYCNKYRPYGRIFHRAYGRDYWGQGTQVTVSS	high polyreactivity
QVQLVESGGGLVQAGGSLRLSCAASGRTFYSYTMGWYRQAPGKDRELVAAITRSGGRTYYADSVKGRFTISRDNAKNTVYLQMNSLKPDDTAVYYCAKGWVSYWRYKNEYWGQGTQVTVSS	high polyreactivity
QVQLVESGGGLVQAGGSLRLSCAASGRTFYSYTMGWYRQAPGKERELVAAINRGGSTYYADSVKGRFTISRDNAKNTVYLQMNSLKPEDTAVYYCNVDWKVYGAPDYRIAWKYDYWGQGTQVTVSS	low polyreactivity
